Measured values published in publication PMC4726114, “DSF Guided Refolding As A Novel Method Of Protein Production” (Scientific Reports, 2016).

Target: the molecule itself
Experiment: SEC; analytical size-exclusion chromatography of refolded irisin; apparent molecular weight 28 kDa

B1: human irisin (FNDC5 residues 32-143) (natural protein, UniProt Q8NAU1 80-191, looked up)
chain: DSPSAPVNVTVRHLKANSAVVSWDVLEDEVVIGFAISQQKKDVRMLRFIQEVNTTTRSCALWDLEEDTEYIVHVQAISIQGQSPASEPVLFKTPREAEKMASKNKDEVTMKE
notes: irisin, human FNDC5 residues 32-143
Q: How did the “stoichiometry N” value turn out when B1 was run?
A: 2
